Results taken from publication PMC8539536, “Generation of a Soluble Form of Human Endoglin Fused to Green Fluorescent Protein” (International Journal of Molecular Sciences, 2021).

Molecular target: the molecule itself
Assay: SDS-PAGE under reducing and nonreducing conditions with Western blot; 3-day culture medium of CHO-K1 transfectants separated under reducing or nonreducing conditions; immunodetection with anti-GFP antibodies; positions of dimer and monomer compared

B1: endoglin–GFP fusion protein (extracellular domain of human endoglin fused with EGFP, from pEGFP–N1/Eng.EC) (domain or fragment, UniProt P17813 26-586, looked up)
chain: ETVHCDLQPVGPERGEVTYTTSQVSKGCVAQAPNAILEVHVLFLEFPTGPSQLELTLQASKQNGTWPREVLLVLSVNSSVFLHLQALGIPLHLAYNSSLVTFQEPPGVNTTELPSFPKTQILEWAAERGPITSAAELNDPQSILLRLGQAQGSLSFCMLEASQDMGRTLEWRPRTPALVRGCHLEGVAGHKEAHILRVLPGHSAGPRTVTVKVELSCAPGDLDAVLILQGPPYVSWLIDANHNMQIWTTGEYSFKIFPEKNIRGFKLPDTPQGLLGEARMLNASIVASFVELPLASIVSLHASSCGGRLQTSPAPIQTTPPKDTCSPELLMSLIQTKCADDAMTLVLKKELVAHLKCTITGLTFWDPSCEAEDRGDKFVLRSAYSSCGMQVSASMISNEAVVNILSSSSPQRKKVHCLNMDSLSFQLGLYLSPHFLQASNTIEPGQQSFVQVRVSPSVSEFLLQLDSCHLDLGPEGGTVELIQGRAAKGNCVSLLSPSPEGDPRFSFLLHFYTVPIPKTGTLSCTVALRPKTGSQDQEVHRTVFMRLNIISPDLSGCTSKG
notes: then a linker of 19 amino acids and 239 residues of GFP, 844 amino acids in all; Disulfide-linked dimer of ~275 kDa; glycosylated; also called Eng–GFP; source: CHO-K1, stably transfected with pEGFP–N1/Eng.EC, secreted, in culture medium; not shown: EGFP, C-terminal, kept
stoichiometry N: 2
